From patent publication US8722052B2, “Vaccinia virus protein A46 peptide and use thereof” (priority 2008, dated 2014)
“Also recorded” adds a separate entry of the source. Square brackets hold non-standard residues; d marks the D form. Ends that are not written are not given here.

The substances below were run against T1, TLR4 (Mus musculus, UniProt Q9QUK6) (assay: LPS-induced TNFα in immortalised murine macrophages, ELISA). Conditions: peptide 1, 5 or 25 μM 1 h before 10 ng/ml LPS, 6 h.
T1 sequence (Q9QUK6 26-835): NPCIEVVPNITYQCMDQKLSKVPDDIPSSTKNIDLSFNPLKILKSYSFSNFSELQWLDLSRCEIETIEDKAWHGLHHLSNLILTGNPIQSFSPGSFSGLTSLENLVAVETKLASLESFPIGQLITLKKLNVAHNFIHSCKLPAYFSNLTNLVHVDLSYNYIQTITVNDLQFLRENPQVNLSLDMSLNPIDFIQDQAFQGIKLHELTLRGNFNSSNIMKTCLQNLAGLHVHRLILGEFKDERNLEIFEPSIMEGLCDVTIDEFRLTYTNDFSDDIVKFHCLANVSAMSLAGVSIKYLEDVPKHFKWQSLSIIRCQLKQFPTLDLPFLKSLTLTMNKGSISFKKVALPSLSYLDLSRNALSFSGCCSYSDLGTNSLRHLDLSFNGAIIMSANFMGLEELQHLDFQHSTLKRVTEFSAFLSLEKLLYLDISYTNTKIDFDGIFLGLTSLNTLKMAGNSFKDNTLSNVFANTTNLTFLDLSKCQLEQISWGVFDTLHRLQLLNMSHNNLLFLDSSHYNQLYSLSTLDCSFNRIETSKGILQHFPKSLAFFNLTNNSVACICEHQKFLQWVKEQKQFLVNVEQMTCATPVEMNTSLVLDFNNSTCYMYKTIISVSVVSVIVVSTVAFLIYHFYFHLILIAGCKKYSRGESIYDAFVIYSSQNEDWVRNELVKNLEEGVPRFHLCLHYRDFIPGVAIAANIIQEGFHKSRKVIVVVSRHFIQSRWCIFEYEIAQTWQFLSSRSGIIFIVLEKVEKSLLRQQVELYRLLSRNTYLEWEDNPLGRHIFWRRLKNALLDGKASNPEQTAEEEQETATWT
T1 sequence (Q9JHF9 19-160 partner): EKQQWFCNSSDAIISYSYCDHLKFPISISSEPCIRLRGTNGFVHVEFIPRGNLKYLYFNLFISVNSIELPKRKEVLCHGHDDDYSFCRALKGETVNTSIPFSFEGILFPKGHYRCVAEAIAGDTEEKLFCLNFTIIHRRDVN
Assay type: cell-based
Design: endogenous in cells; immortalised murine bone-marrow-derived macrophages
Method: FIGS. 14A and B are bar charts showing the comparison of the inhibitory effect of the L- and D-forms of A464 on LPS-induced TNFα in primary human and murine cells. PBMC (1×10^6 cells/ml, (A)) or immortalised murine macrophages (1.5×10^5 cells/ml, (B)) were seeded in 96 well plates 24 hours before treatment. L-form and D-form A464 peptides (with the 9R delivery peptide on the C-terminus, SEQ ID NO. 20) were added to the cells at a concentration of 1, 5 or 25 μM 1 hour before stimulating with 10 ng/ml LPS. Supernatants were collected 6 hours after stimulation and assayed for either human (A) or murine (B) TNFα production by ELISA. No peptides were added to the control wells (black bars). Data is representative of at least three experiments each performed in triplicate and is expressed as mean±s.d;
FIGS. 15A and B are bar charts showing the effect of the D-form A464 peptide with the TAT delivery sequence on LPS induced TNFα in primary human and murine cells. PBMC (A) and immortalised murine macrophages (B) were seeded in 96 well plates 24 hours before treatment. D-form of A467 (SEQ ID NO. 37) and A464 (SEQ ID NO. 36) with the TAT delivery sequence were added to the cells at a concentration of 1, 5 or 25 μM 1 hour before stimulating with 10 ng/ml LPS. The peptides were added into the unstimulated control wells at 25 μM. Supernatants were collected 6 hours after stimulation and assayed for either human (A) or murine (B) TNFα production by ELISA. No peptides were added to the control wells (black bars). Data is representative of at least three experiments each performed in triplicate and is expressed as mean±s.d;
FIGS. 16A and B are bar charts showing the effect of attaching 9R to the N-terminus of A464 on LPS-induced TNFα in primary human and murine cells. Immortalised murine macrophages (A) and PBMC (B) were seeded in 96 well plates 24 hours before treatment. L-form of A467 (SEQ ID NO. 39) and A464 (SEQ ID NO. 38) with the 9R-delivery sequence at the N-terminus were added to the cells at a concentration of 1, 5 or 25 μM 1 hour before stimulating with 10 ng/ml LPS. The peptides were added into the unstimulated control wells at […]. Supernatants were collected 6 hours after stimulation and assayed for either murine (A) or human (B) TNFα production by ELISA. No peptides were added to the control wells (black bars). Data is representative of at least three experiments each performed in triplicate and is expressed as mean±s.d;
FIGS. 17A and B are bar charts showing the effect of the D-form A464 with 9R at the N-terminus on LPS-induced TNFα in primary human and murine cells. Immortalised murine macrophages (A) and PBMC (B) were seeded in 96 well plates 24 hours before treatment. D-form of A467 (SEQ ID NO. 39) and A464 (SEQ ID NO. 38) peptides with the 9R-delivery sequence at N-terminus were added to the cells at a concentration of 1, 5 or 25 μM 1 hour before stimulating with 10 ng/ml LPS. The peptides were added into the unstimulated control wells at 25 μM. Supernatants were collected 6 hours after stimulation and assayed for either murine (A) or human (B) TNFα production by ELISA. No peptides were added to the control wells (black bars). Data is representative of at least three experiments each performed in triplicate and is expressed as mean±s.d;
FIGS. 18A and B are bar charts showing the effect of shortened A464 peptides with deletions of N- and C-terminal amino acids on LPS-induced TNFα in murine macrophages. Immortalised murine macrophages were seeded in 96 well plates (1.5×10^5 cells/ml) 24 hours before treatment. A464 peptides with a deletion of one (N-1) (SEQ ID NO. 40) or two (N-2) (SEQ ID NO. 41) amino acids from the N-terminus (A), or three (C-3) (SEQ ID NO. 42) or six (C-6) (SEQ ID NO. 43) amino acids from the C-terminus (B), were added to the cells at a concentration of 1, 5 or 25 μM 1 hour before stimulating with 10 ng/ml LPS. Peptides were added to the control wells at 25 μM. […]

Substance	inhibition of LPS-induced mTNFα production
9RN-A464 (RRRRRRRRRKYSFKLILAEY) [Peptide 9RN-A464]	complete inhibition was observed at 1 μM
D-9RN-A464 ([dR][dR][dR][dR][dR][dR][dR][dR][dR][dK][dY][dS][dF][dK][dL][dI][dL][dA][dE][dY]) [Peptide D-9RN-A464]	no inhibition at 1 μM
KYSFKLILAEYRRRRRRRRR [Peptide A464]	significant inhibition of TLR4 by A464 (SEQ ID No. 20) at 1 μM; also recorded: complete inhibition at 1
